Test [1] addresses T1, biotinylated hPD-L1 (extracellular domain of human PD-L1, Ala18 to Thr239, expressed in E. coli, … (human, biotin on the epsilon-amino group of the Avi tag lysine (BirA))).
T1 construct: also called recombinant hPD-L1; non-glycosylated hPD-L1
Briefly: fluorescence anisotropy, 100 nM ROX-SPAM titrated with hPD-L1. How it is done: (§1) Each measurement was carried out in triplicate and the mean value was reported along with the standard deviation. […] The mean of the normalized binding for each incubation time is shown along with the standard deviation of the mean. Each measurement was carried out in triplicate and error bars show the standard deviation of the mean (Students t-test; p value <0.05 (*), <0.01 (**), <0.005 (***), <0.001 (****)).
(§2) The resulting values were plotted against the concentration of hPD-L1 or hPD-L1* and fit to a one-site saturation binding model with GraphPad Prism.

For test [2], the target named is T2, hPD-L1* (recombinant glycosylated human PD-L1 ectodomain, A18-T239, expressed in Expi293F cells) (human, UniProt Q9NZQ7 18-239, N-glycosylated; Avi tag biotinylated in vitro with BirA).
T2 construct: also called glycosylated hPD-L1
Briefly: fluorescence anisotropy, 100 nM ROX-SPAM titrated with hPD-L1*. The procedure:
as §1, §2
A general note: In fluorescence polarisation assays a small probe gives low polarisation when free and higher when bound to something large.

Test [3] addresses T2, hPD-L1* (recombinant glycosylated human …). Briefly: fluorescence polarization, 100 nM ROX-SPAM with 2.4 nM-5 uM glycosylated hPD-L1*, 22 C (67 +/- 21 nM in paragraph 94); glycosylated hPD-L1*. How it is done:
as §2
(§3) The fluorescence polarization of each sample was measured on a Synergy H4 Hybrid Multi-Mode Microplate Reader. Each measurement was carried out in triplicate and the mean value was calculated. The values were fit to a one-site saturation binding model in GraphPad Prism to obtain the corresponding equilibrium dissociation constants.

The target in test [4] is T1, biotinylated hPD-L1 (extracellular …). Briefly: fluorescence polarization, 100 nM ROX-SPAM with 2.4 nM-5 uM non-glycosylated hPD-L1, 21 C (119 +/- 33 nM in paragraph 94); non-glycosylated, E. coli-expressed hPD-L1. How it is done:
as §2, §3

Primed or numbered codes have the meaning given here. Where no end group is shown, it is not given here. Side-chain parts run from the residue outwards. [ ]: non-standard residue; d: D form. triazole = 1,2,3-triazole formed by click reaction of the propargylglycine alkyne with ROX-azide; Pra′ = its azide, alkyne or alkene has reacted where a group follows in round brackets; ROX = carboxy-X-rhodamine, joined by click triazole

B1: ROX-SPAM (carboxy-X-rhodamine labeled SPAM peptide) (peptide)
peptide: MPIFLDHILNKFWILHYASG[Pra′]([triazole-ROX])-NH2
modifications: also: ROX attached to Pra by click triazole
notes: Synthetic peptide used in fluorescence polarization; also called ROX-labeled SPAM
For B1, the “EC50 (read off the curve)” value in test [1] is about 100 nM; in test [2], about 70 nM. Besides, the Kd in test [3] amounted to 67 nM; in test [4], 119 nM.

For orientation: EC50 (read off the curve) means the midpoint of the concentration-response curve. What is called Kd is a measure of binding affinity in units of concentration.

Source of the values: patent US20230174616A1 (UNIVERSITY OF SOUTHERN CALIFORNIA, published 2023).
